This note sets out measurements from paper doi:10.1101/2021.07.02.450866.

The target in assay [1] is CE3-HA-B*27:05 (HLA-B*27:05 heavy chain) (human). Description: non-reducing SDS-PAGE and Western blot of precipitated surface class I.
The target in assay [2] is GFP-K^b (free heavy chain of H-2K^b with N-terminal monomeric GFP) (murine) (UniProt P01901). As to the kind of experiment: single-molecule co-tracking.
The target in assay [3] is HA-K^b (free heavy chain of H-2K^b with N-terminal HA tag) (murine) (UniProt P01901). Description: FRAP.
Assay [4] concerns the target isolated, soluble α3 domain of H-2K^b (recombinant) (murine) (UniProt P01901). Description: native MS.
The target is the same in assay [5]. Description: SEC.

Substance “CE3-HA-B*27:05 (HLA-B*27:05 heavy chain) (natural protein)” showed a stoichiometry N in assay [1] of 2.

As for “GFP-K^b (free heavy chain of H-2K^b with N-terminal monomeric GFP) (from UniProt P01901 22-369) (natural protein)”, in assay [2], the fraction of co-locomoting molecules turned out to be 3%, the half-life (t½) is 0.22 s, the dissociation rate constant (koff) was 3.1 s⁻¹ and the stoichiometry N turned out to be 2.

“K^b-GFP (free heavy chain of H-2K^b with C-terminal GFP) (from UniProt P01901 22-369) (natural protein)”: the half-time of dissociation in assay [3] was found to be 140 s.

Regarding “isolated, soluble α3 domain of H-2K^b (recombinant) (from UniProt P01901 205-295) (domain or fragment)”, the stoichiometry N in assay [4] was 2. Moreover, in assay [5], the Kd was in the range of 10 to 20 µM and the stoichiometry N was 2.
